Article PMC11763500
Values joined by “and” are separate entries in the source; they are usually repeats but may differ in a detail not shown here. Identical values can stand only once.

Experiments:
[1] = molecular target: SARS-CoV-2 spike (S) protein, Omicron (SARS-CoV-2 Omicron variant) (UniProt P0DTC2); test: SPR; details: 5' di-DTPA (2 dithiol phosphoramidite) in printed sequence; not stated whether present in SPR analyte
[2] = molecular target: SARS-CoV-2 spike (S) protein, beta (SARS-CoV-2 beta variant) (UniProt P0DTC2); test: electrochemical aptasensor (DPV); details: 5' di-DTPA (2 dithiol phosphoramidite groups), on gold with PEG 2000 backfill
[3] = molecular target: SARS-CoV-2 spike (S) protein, alpha (SARS-CoV-2 alpha variant) (UniProt P0DTC2); test: electrochemical aptasensor (DPV); details: 5' di-DTPA (2 dithiol phosphoramidite groups), on gold with PEG 2000 backfill
[4] = molecular target: SARS-CoV-2 spike (S) protein, Omicron (SARS-CoV-2 Omicron variant) (UniProt P0DTC2); test: electrochemical aptasensor (DPV); details: 5' di-DTPA (2 dithiol phosphoramidite groups), on gold with PEG 2000 backfill

Row | Sequence | Kd [1] | binding signal [2] | binding signal [3] | binding signal [4]
1 | GGGGGCGTCAAGCGGGGTCACATCGGAGTAGGGAATCTTG [C9t (SPR)] | 14.6 nM |  |  | 
2 | GGGGGCGTCAAGCGGGGTCACATCGGAGTAGGGAATCTTG [C9t di-DTPA (surface-immobilized)] |  | 27.1 dI/I0 and 43.6 dI/I0 | 17.9 dI/I0 and 31.9 dI/I0 | 1240 dI/I0
